These results are taken from patent EP4721754A1 (Hangzhou Sciwind Biosciences Co., Ltd., dated 2026).

B1: M7 (peptide)
peptide: {C22 diacid′-γGlu}-ASQLSTAVLGRLSDELHRLQDYPRTDVGSGSP-NH2
modifications: ends and bridges not checked
B2: M26 (peptide)
peptide: {C18 diacid}-D[AEEA][AEEA]ASQLSTAVLGRLSDELHRLQDYPRTDVGSGSP-NH2
B3: M8 (peptide)
peptide: {C18 diacid-γGlu}-ASQLSTAVLGRLSDELHRLQDYPRTDVGSGSP-NH2
modifications: ends and bridges not checked
B4: M25 (peptide)
peptide: ASQLSTAVLGRLSDELHRLQDYPRTDVGSGSP
modifications: not fully specified; N terminus: C20 diacid + βAsp+2 AEEAs
B5: M15 (peptide)
peptide: B4 peptide
modifications: N terminus: C18 diacid + Trx
B6: M14 (peptide)
peptide: B4 peptide
modifications: not fully specified; N terminus: C20 diacid + Trx
B7: M16 (peptide)
peptide: B4 peptide
modifications: not fully specified; N terminus: C20 diacid + Inp
B8: M12 (peptide)
peptide: B4 peptide
modifications: not fully specified; N terminus: C20 diacid + βAsp
B9: M18 (peptide)
peptide: B4 peptide
modifications: not fully specified; N terminus: C20 diacid + yGlu+2 AEEAs
B10: M13 (peptide)
peptide: {C18 diacid}-DASQLSTAVLGRLSDELHRLQDYPRTDVGSGSP-NH2
B11: M24 (peptide)
peptide: {C18 diacid}-E[AEEA][AEEA]ASQLSTAVLGRLSDELHRLQDYPRTDVGSGSP-NH2
B12: M17 (peptide)
peptide: {C18 diacid-Inp′}-ASQLSTAVLGRLSDELHRLQDYPRTDVGSGSP-NH2
B13: M11 (peptide)
peptide: {C18 diacid}-EASQLSTAVLGRLSDELHRLQDYPRTDVGSGSP-NH2
B14: M6 (peptide)
peptide: {C20 diacid-γGlu}-ASQLSTAVLGRLSDELHRLQDYPRTDVGSGSP-NH2
modifications: ends and bridges not checked
B15: M9 (peptide)
peptide: {C16 diacid-γGlu}-ASQLSTAVLGRLSDELHRLQDYPRTDVGSGSP-NH2
modifications: ends and bridges not checked
B16: M28 (peptide)
peptide: B4 peptide
modifications: N terminus: C18 diacid + Trx+2 AEEAs
B17: M27 (peptide)
peptide: B4 peptide
modifications: not fully specified; N terminus: C20 diacid + Trx+2 AEEAs
B18: M29 (peptide)
peptide: B4 peptide
modifications: not fully specified; N terminus: C20 diacid + Inp+2 AEEAs
B19: N2 (peptide)
peptide: {C20 diacid-βAsp-AEEA-AEEA}-KCNTATCATQRLADFLRHSSNNLKPILPPTNVGSNT[Hyp]-NH2
modifications: disulfide 2-7 (inferred); ends not checked
B20: M10 (peptide)
peptide: B4 peptide
modifications: not fully specified; N terminus: C20 diacid + αGlu
B21: M23 (peptide)
peptide: B4 peptide
modifications: not fully specified; N terminus: C20 diacid + αGlu+2 AEEAs
B22: M21 (peptide)
peptide: B4 peptide
modifications: not fully specified; N terminus: C20 diacid + yGlu+8 AEEAs
B23: M22 (peptide)
peptide: {C18 diacid-γGlu-AEEA-AEEA}-ASQLSTAVLGRLSDELHRLQDYPRTDVGSGSP-NH2
B24: M5 (peptide)
peptide: ASQLSTAVLGRLSQELHRLQDYPRTDVGSGSP-NH2
B25: N3 (peptide)
peptide: {C18 diacid-βAsp-AEEA-AEEA}-KCNTATCATQRLADFLRHSSNNLKPILPPTNVGSNT[Hyp]-NH2
modifications: disulfide 2-7 (inferred); ends not checked
B26: N1 (peptide)
peptide: {C20 diacid-AEEA-AEEA}-KCNTATCATQRLADFLRHSSNNLKPILPPTNVGSNT[Hyp]-NH2
modifications: disulfide 2-7 (inferred); ends not checked

Numbered stars: 1 amine (or outer) side, 2 acyl side, 3 side chain; on linkers, the order of the positions; unused ones are H or OH. Bridge positions count the residues as written; N and C are the ends. Square brackets hold non-standard residues; d marks the D form. Primed or numbered codes have the meaning given here. Ends that are not written are not given here. * marks the point of attachment. C22 diacid′ = docosanedioic acid (C22 diacid) acyl; C20 diacid = O=C(O)CCCCCCCCCCCCCCCCCCC(=O)*; C18 diacid = O=C(O)CCCCCCCCCCCCCCCCC(=O)*; C16 diacid = O=C(O)CCCCCCCCCCCCCCC(=O)*; γGlu = O=C(O)[C@H](CCC(=O)[*:2])N[*:1]; βAsp = O=C(O)[C@H](CC(=O)[*:2])N[*:1]; Hyp = O=C(O)[C@@H]1C[C@@H](O)CN1; Inp′ = not defined here; AEEA = NCCOCCOCC(=O)O

In one assay the target is T1, calcitonin receptor (hCTR) (human, UniProt P30988 25-474).
T1 sequence (looked up): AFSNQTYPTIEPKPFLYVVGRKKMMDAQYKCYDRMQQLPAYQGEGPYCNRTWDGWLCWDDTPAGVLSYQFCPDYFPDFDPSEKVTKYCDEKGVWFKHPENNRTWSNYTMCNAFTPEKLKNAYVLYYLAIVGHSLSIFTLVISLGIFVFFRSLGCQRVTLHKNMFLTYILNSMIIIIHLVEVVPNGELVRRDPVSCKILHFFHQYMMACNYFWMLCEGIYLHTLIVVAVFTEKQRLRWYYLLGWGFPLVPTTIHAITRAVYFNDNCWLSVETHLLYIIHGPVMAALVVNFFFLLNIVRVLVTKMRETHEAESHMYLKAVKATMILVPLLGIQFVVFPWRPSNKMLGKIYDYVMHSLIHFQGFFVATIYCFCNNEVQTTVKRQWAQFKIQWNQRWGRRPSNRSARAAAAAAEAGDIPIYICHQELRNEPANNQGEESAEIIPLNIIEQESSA
Briefly: cell-based or functional assay.
For the molecule B1, the “EC50, CRE-luciferase reporter in calcitonin receptor/CRE-luc CHO cells, 24 h” value stood at 0.194 nM.
Same read-out and setting: next, B2: 0.024 nM.
B3: the “EC50, CRE-luciferase reporter in calcitonin receptor/CRE-luc CHO cells, 24 h” value is 0.165 nM.
The same measure, in the same setting: the value for B4 was 0.138 nM.
As for B5, the “EC50, CRE-luciferase reporter in calcitonin receptor/CRE-luc CHO cells, 24 h” value came out at 0.469 nM.
In the case of B6, the “EC50, CRE-luciferase reporter in calcitonin receptor/CRE-luc CHO cells, 24 h” value was found to be 0.587 nM.
In the case of B7, the “EC50, CRE-luciferase reporter in calcitonin receptor/CRE-luc CHO cells, 24 h” value was found to be 0.376 nM.
B8: the “EC50, CRE-luciferase reporter in calcitonin receptor/CRE-luc CHO cells, 24 h” value is 0.073 nM.
Same read-out and setting: next, B9: 0.069 nM; B10: 0.085 nM.
Same read-out and setting: the value for B11 was 0.081 nM; that for B12 was 0.259 nM; that for B13 was 0.071 nM.
The same measure, in the same setting: the value for B14 was 0.028 nM; that for B15 was 0.12 nM.

The target of a further assay is T2, amylin receptor (hAMY3R) (human, UniProt P30988 25-474; O60896 24-148).
T2 sequence (looked up) 1: T1 sequence (looked up)
T2 sequence (looked up) 2: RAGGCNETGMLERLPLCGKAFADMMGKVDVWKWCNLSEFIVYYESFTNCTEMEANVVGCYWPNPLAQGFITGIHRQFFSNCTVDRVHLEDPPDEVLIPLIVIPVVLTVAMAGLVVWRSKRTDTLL
Briefly: cell-based or functional assay.
B4: the “Fold change in activity against hAMY3R (benchmark D1)” value was found to be 2.12 fold.
Still for that read-out and setting: the value for B5 was 0.303 fold; that for B6 was 0.079 fold.
With B16, the “Fold change in activity against hAMY3R (benchmark D1)” value was determined as 18 fold.
Consider B7, for which the “Fold change in activity against hAMY3R (benchmark D1)” value is 0.439 fold.
Still for that read-out and setting: the value for B8 was 2.12 fold.
Regarding B17, the “Fold change in activity against hAMY3R (benchmark D1)” value came to 9 fold.
The same measure, in the same setting: next, B18: 6 fold.
Consider B9, for which the “Fold change in activity against hAMY3R (benchmark D1)” value worked out at 2.25 fold and the “hAMY3R EC50, CRE-luciferase reporter cells” value was 0.016 nM.
B11: the “Fold change in activity against hAMY3R (benchmark D1)” value came out at 5.14 fold.
On the same count and under the same terms, the value for B12 was 0.571 fold; that for B13 was 2.25 fold; that for B14 was 2.12 fold.

For another assay, the target named is T1, calcitonin receptor (hCTR). Briefly: cell-based or functional assay. This is another data set of the same source.
For the molecule B4, the “Fold change in activity against hCTR (benchmark D1)” value was determined as 0.623 fold.
Turning to B5, the “Fold change in activity against hCTR (benchmark D1)” value stood at 0.183 fold.
Still for that read-out and setting: next, B6: 0.147 fold.
Take B16: the “Fold change in activity against hCTR (benchmark D1)” value is 0.966 fold and the “hCTR EC50, CRE-luciferase reporter cells” value is 0.089 nM.
Turning to B7, the “Fold change in activity against hCTR (benchmark D1)” value turned out to be 0.229 fold.
As for B8, the “Fold change in activity against hCTR (benchmark D1)” value amounted to 1.18 fold.
As for B17, the “Fold change in activity against hCTR (benchmark D1)” value was determined as 0.161 fold and the “hCTR EC50, CRE-luciferase reporter cells” value turned out to be 0.533 nM.
As for B18, the “Fold change in activity against hCTR (benchmark D1)” value is 0.551 fold and the “hCTR EC50, CRE-luciferase reporter cells” value stood at 0.156 nM.
Take B9: the “Fold change in activity against hCTR (benchmark D1)” value was found to be 1.25 fold.
Still for that read-out and setting: next, B11: 1.06 fold.
On to B12, for which the “Fold change in activity against hCTR (benchmark D1)” value was 0.332 fold.
Same read-out and setting: next, B13: 1.21 fold; B14: 3.07 fold.

The target in the next assay is T2, amylin receptor (hAMY3R). Briefly: cell-based or functional assay. The source holds these as a separate data set.
Regarding B1, the “EC50, CRE-luciferase reporter in amylin receptor/CRE-luc CHO cells, 24 h” value came out at 0.022 nM.
Turning to B19, the “EC50, CRE-luciferase reporter in amylin receptor/CRE-luc CHO cells (incubation presumably 4 h, per paragraph 38)” value came out at 0.009 nM and the “EC50, CRE-luciferase reporter in amylin receptor/CRE-luc CHO cells (incubation presumably 24 h)” value was found to be 0.04 nM.
B2: the “EC50, CRE-luciferase reporter in amylin receptor/CRE-luc CHO cells, 24 h” value turned out to be 0.008 nM.
The same measure, in the same setting: next, B3: 0.016 nM; B4: 0.017 nM; B5: 0.119 nM.
The same measure, in the same setting: next, B6: 0.456 nM.
The same measure, in the same setting: next, B16: 0.002 nM.
Take B7: the “EC50, CRE-luciferase reporter in amylin receptor/CRE-luc CHO cells, 24 h” value turned out to be 0.082 nM.
The same measure, in the same setting: next, B8: 0.017 nM; B17: 0.004 nM; B18: 0.006 nM.
The same measure, in the same setting: the value for B20 was 0.069 nM; that for B21 was 0.017 nM; that for B22 was 0.044 nM.
Same read-out and setting: the value for B23 was 0.015 nM.
On to B24, for which the “EC50, CRE-luciferase reporter in amylin receptor/CRE-luc CHO cells, 24 h” value came to 0.033 nM.
The same measure, in the same setting: the value for B10 was 0.016 nM.
As to B25, the “EC50, CRE-luciferase reporter in amylin receptor/CRE-luc CHO cells (incubation presumably 4 h, per paragraph 38)” value amounted to 0.001 nM.
Turning to B11, the “EC50, CRE-luciferase reporter in amylin receptor/CRE-luc CHO cells, 24 h” value worked out at 0.007 nM.
Still for that read-out and setting: next, B12: 0.063 nM; B26: 0.016 nM.
Turning to B13, the “EC50, CRE-luciferase reporter in amylin receptor/CRE-luc CHO cells, 24 h” value turned out to be 0.016 nM.
B14: the “EC50, CRE-luciferase reporter in amylin receptor/CRE-luc CHO cells, 24 h” value stood at 0.017 nM.
Still for that read-out and setting: the value for B15 was 0.002 nM.
